Residue numbers refer to the chain shown, from its start.
T1: recombinant purified human IL-12 p70 (human, UniProt P29459 23-219)
T1 sequence 1: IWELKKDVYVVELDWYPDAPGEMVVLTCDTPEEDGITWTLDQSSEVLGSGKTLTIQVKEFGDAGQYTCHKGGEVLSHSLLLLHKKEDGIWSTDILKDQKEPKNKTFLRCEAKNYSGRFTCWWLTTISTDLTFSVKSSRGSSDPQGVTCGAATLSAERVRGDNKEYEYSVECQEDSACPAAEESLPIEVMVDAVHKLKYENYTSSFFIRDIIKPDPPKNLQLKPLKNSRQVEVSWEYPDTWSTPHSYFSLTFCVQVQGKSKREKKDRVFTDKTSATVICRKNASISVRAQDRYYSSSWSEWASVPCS
T1 sequence 2: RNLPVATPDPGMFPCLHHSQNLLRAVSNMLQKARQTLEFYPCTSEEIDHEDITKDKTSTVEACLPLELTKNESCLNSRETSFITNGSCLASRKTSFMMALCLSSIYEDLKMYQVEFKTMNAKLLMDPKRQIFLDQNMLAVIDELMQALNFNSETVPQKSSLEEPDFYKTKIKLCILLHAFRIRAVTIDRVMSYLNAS

T2: recombinant purified cyno IL-12 p70 (cynomolgus monkey)
T2 chain 1: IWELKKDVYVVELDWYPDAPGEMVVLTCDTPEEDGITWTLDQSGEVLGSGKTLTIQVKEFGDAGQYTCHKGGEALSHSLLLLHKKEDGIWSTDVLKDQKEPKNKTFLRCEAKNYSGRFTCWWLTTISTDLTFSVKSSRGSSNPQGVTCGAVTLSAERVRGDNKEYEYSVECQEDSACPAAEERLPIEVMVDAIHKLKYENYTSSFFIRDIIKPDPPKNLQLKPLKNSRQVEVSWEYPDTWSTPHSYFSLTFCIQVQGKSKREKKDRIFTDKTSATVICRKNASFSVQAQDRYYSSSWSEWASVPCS
T2 chain 2: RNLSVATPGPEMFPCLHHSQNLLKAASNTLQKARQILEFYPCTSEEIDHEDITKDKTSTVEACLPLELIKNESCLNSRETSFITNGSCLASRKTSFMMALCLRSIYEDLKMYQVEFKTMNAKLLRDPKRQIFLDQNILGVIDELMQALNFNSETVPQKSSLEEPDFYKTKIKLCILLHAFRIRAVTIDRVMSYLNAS

B1: anti-IL-12p40 humanized antibody 1D4.6 (antibody, human IgG1, kappa, L234A L235A, V domains shown)
VH: EVTLRESGPALVKPTQTLTLTCTFSGFSLSKSVMGVSWIRQPPGKALEWLAHIYWDDDKYYNPSLKSRLTISKDTSKNQVVLTMTNMDPVDTATYYCTRRGIRSAMDYWGQGTTVTVSS
VL: DVVMTQSPDSLAVSLGERATINCKASQSVSNDVAWYQQKPGQPPKLLIYYASNRYTGVPDRFSGSGYGTDFTLTISSLQAEDVAVYYCQQDYNSPWTFGGGTKVEIKR
notes: COS cells
B2: anti-IL-12p40 humanized antibody 1D4.8 (antibody, human IgG1, kappa, L234A L235A, V domains shown)
VH: B1 VH with S30R
VL: B1 VL with V2I, Y67S
notes: Back-mutated CDR-grafted antibody; COS cells
B3: anti-IL-12p40 humanized antibody 1A6.9 (antibody, human IgG1, kappa, L234A L235A, V domains shown)
VH: EVTLRESGPALVKPTQTLTLTCTFSGFSLSTSGMGVSWIRQPPGKALEWLAHIWWDGDNYYNPSLKSRLTISKDTSKNQVVLTMTNMDPVDTATYYCARRTRVNYAMDYWGQGTTVTVSS
VL: B1 VL with D1S, Y36F
notes: as for B2
B4: anti-IL-12p40 humanized antibody 8E1.3 (antibody, human IgG1, kappa, L234A L235A, V domains shown)
VH: EVKLVESGGGLVQPGGSLRLSCAASGFTFSDYGMVWVRQAPGKGLEWVASISSGSSNIYYADTVKGRFTISRDDSKNTLYLQMNSLKTEDTAVYYCARNPYWGQGTTVTVSS
VL: DIVMTQSPSSLSASVGDRVTITCKASQNVGTNVAWYQQKPEKAPKSLIYSASHRYSGVPSRFSGSGSGTDFTLTISSLQPEDFATYYCQQYNSYPLTFGGGTKVEIKR
notes: as for B2
B5: anti-IL-12p40 humanized antibody 3G7.3 (antibody, human IgG1, kappa, L234A L235A, V domains shown)
VH: EVQLVQSGAEVKKPGASVKVSCKATGYTFNDYWIEWVRQAPGQGLEWMGGFSHGSGSTNYNEKFKGRVTMTADSSTNTAYMELRSLRSDDTAVYYCARRRFRGMDYWGQGTTVTVSS
VL: EIVMTQSPATLSVSPGERATLSCKASQSVSNDVAWYQQKPGQAPRLLIYYASNRYTGVPDRFSGSGSGTEFTLTISSLQSEDFAVYYCQQDYSSPWSFGGGTKVEIKR
notes: as for B2
B6: chimeric anti-human IL-12p40 antibody 1A6-Chim (antibody, human IgG1, kappa, L234A L235A, V domains shown)
VH: QVTLKESGPGILKPSQTLSLTCSFSGFSLSTSGMGVSWIRQPSGKGLEWLAHIWWDGDNYYNPSLKSQLTISKDTSRNQVFLRIATVDTADTATYYCARRTRVNYAMDYWGQGTSVTVSS
VL: SVVMTQTPKFLLVSAGDRVTITCKASQSVSNDVAWFQQKPGQSPKLLIYYASNRYTGVPDRFTGSGYGTDFTFTISTVQAEDLAVYFCQQDYNSPWTFGGGTKLEIKR
B7: chimeric anti-human IL-12p40 antibody 3G7-Chim (antibody, human IgG1, kappa, L234A L235A, V domains shown)
VH: QVQLQQSGAELMKPGASVKISCKATGYTFNDYWIEWVKQRPGHGLEWIGGFSHGSGSTNYNEKFKGKATFTADSSSNTAYMQLSSLTSEDSAVYYCARRRFRGMDYWGQGTSVTVSS
VL: B6 VL with V2I, F36Y, S76T, N93S, T97S
B8: chimeric anti-human IL-12p40 antibody 8E1-Chim (antibody, human IgG1, kappa, L234A L235A, V domains shown)
VH: B4 VH with L18R, R19K, S75P, K76N, Y80F, N84R, K87R, T88S, V93M, V108L
VL: DIVMTQSQKFMSTSVGDRVSVTCKASQNVGTNVAWYQQKPGQSPKGLIYSASHRYSGVPDRFAGSGSGTDFTLTISNVQSEDLAEYFCQQYNSYPLTFGGGTKLELKR
B9: chimeric antibody 3G7/1D4-Chim (chimeric 3G7 heavy chain with 1D4 chimeric light chain) (antibody, human IgG1, kappa, L234A L235A, V domains shown)
VH: B7 VH
VL: B6 VL with F36Y, T74I, Q79R
B10: additional humanized anti-IL-12 antibody 1A6.10 (antibody, human IgG1, V domains shown)
VH: B3 VH with A10G, F24L, S25Y, A46G, R68Q, T83K, M84L, N86S, M87V, T115L
VL: DIQMTQSPSSLSASVGDRVTITCKASQSVSNDVAWYQQKPGKAPKLLIYYASNRYTGVPDRFSGSGYGTDFTFTISSLQPEDIATYYCQQDYNSPWTFGGGTKVEIKR
notes: Only variable domains tied to it
B11: additional humanized anti-IL-12 antibody 1A6.12 (antibody, human IgG1, V domains shown)
VH: B3 VH with A10G, F24L, S25Y, A46G, R68Q, T83K, M84L, N86S, M87V, T115L
VL: B10 VL with Y36F
notes: as for B10

Each binder was assayed against T1, recombinant purified human IL-12 p70 (assay: cell-based or functional assay).

Binder	Av. IC50 (nM) huIL-12, PHA blast assay [nM]
B1	0.15
B2	0.095
B3	0.15
B4	10
B5	0.42

What follows are binders tested against T1, recombinant purified human IL-12 p70 (assay: SPR (BIAcore) as in Example 1.1.B, human IL-12p70).
Protocol: Approximately 5000 RU of goat anti-mouse IgG, (Fcγ), fragment specific polyclonal antibody (Pierce Biotechnology Inc, Rockford, Ill.) diluted in 10 mM sodium acetate (pH 4.5) was directly immobilized across a CM5 research grade biosensor chip using a standard amine coupling kit according to manufacturer's instructions and procedures at 25 μg/ml. Unreacted moieties on the biosensor surface were blocked with ethanolamine. Modified carboxymethyl dextran surface in flowcell 2 and 4 was used as a reaction surface. Unmodified carboxymethyl dextran without goat anti-mouse IgG in flow cell 1 and 3 was used as the reference surface. For kinetic analysis, rate equations derived from the 1:1 Langmuir binding model were fitted simultaneously to association and dissociation phases of all eight injections (using global fit analysis) with the use of Biaevaluation 4.0.1 software. Purified antibodies were diluted in HEPES-buffered saline for capture across goat anti-mouse IgG specific reaction surfaces. Mouse antibodies to be captured as a ligand (25 μg/ml) were injected over reaction matrices at a flow rate of 5 μl/min. The association and dissociation rate constants, kₒₙ (unit M⁻¹ s⁻¹) and koff (unit s⁻¹) were determined under a continuous flow rate of 25 μl/min. Rate constants were derived by making kinetic binding measurements at ten different antigen concentrations ranging from 10-200 nM. The equilibrium dissociation constant (unit M) of the reaction between mouse antibodies and recombinant purified human IL-12 p70 or recombinant purified human IL-12 p40 was then calculated from the kinetic rate constants by the following formula: KD=koff/kₒₙ. Binding is recorded as a function of time and kinetic rate constants are calculated. In this assay, on-rates as fast as 10⁶M⁻¹ s⁻¹ and off-rates as slow as 10⁻⁶ can be measured. […]

Binder	Kd [nM]	koff [s⁻¹]	kon [M⁻¹ s⁻¹]
B1	< 0.01	< 1e-05	480000
B2	< 0.01	< 1e-05	120000
B3	< 0.01	< 1e-05	350000
B4	0.76	0.001	1.3e+06
B5	0.2	0.00015	780000

Target: T1, recombinant purified human IL-12 p70
Assay: cell-based or functional assay
Remark: another data set of the same source

Binder	Average IC50 (nM) Human IL-12, PHA blast IFN-γ assay [nM]
B6	0.021
B7	0.12
B8	0.17
B9	0.11

Target: T2, recombinant purified cyno IL-12 p70
Assay: cell-based or functional assay

Binder	Average IC50 (nM) Cyno IL-12, PHA blast IFN-γ assay [nM]
B6	0.02
B7	0.32
B8	0.15
B9	0.29

These binders were tested against T1, recombinant purified human IL-12 p70 (assay: SPR (Biacore) according to Example 1.1.B).
Protocol: The BIACORE assay (Biacore, Inc, Piscataway, N.J.) determines the affinity of antibodies with kinetic measurements of on-, off-rate constants. Binding of antibodies to recombinant purified human IL-12 p70 or recombinant purified human IL-12 p40 were determined by surface plasmon resonance-based measurements with a Biacore® 3000 instrument (Biacore® AB, Uppsala, Sweden) using running HBS-EP (10 mM HEPES [pH 7.4], 150 mM NaCl, 3 mM EDTA, and 0.005% surfactant P20) at 25° C. All chemicals were obtained from Biacore® AB (Uppsala, Sweden) or otherwise from a different source as described in the text. Approximately 5000 RU of goat anti-mouse IgG, (Fcγ), fragment specific polyclonal antibody (Pierce Biotechnology Inc, Rockford, Ill.) diluted in 10 mM sodium acetate (pH 4.5) was directly immobilized across a CM5 research grade biosensor chip using a standard amine coupling kit according to manufacturer's instructions and procedures at 25 μg/ml. Unreacted moieties on the biosensor surface were blocked with ethanolamine. Modified carboxymethyl dextran surface in flowcell 2 and 4 was used as a reaction surface. Unmodified carboxymethyl dextran without goat anti-mouse IgG in flow cell 1 and 3 was used as the reference surface. For kinetic analysis, rate equations derived from the 1:1 Langmuir binding model were fitted simultaneously to association and dissociation phases of all eight injections (using global fit analysis) with the use of Biaevaluation 4.0.1 software. Purified antibodies were diluted in HEPES-buffered saline for capture across goat anti-mouse IgG specific reaction surfaces. Mouse antibodies to be captured as a ligand (25 μg/ml) were injected over reaction matrices at a flow rate of 5 μl/min. The association and dissociation rate constants, kₒₙ (unit M⁻¹ s⁻¹) and koff (unit s⁻¹) were determined under a continuous flow rate of 25 μl/min. Rate constants were derived by making kinetic binding measurements at ten different antigen concentrations ranging from 10-200 nM. The equilibrium dissociation constant (unit M) of the reaction between mouse antibodies and recombinant purified human IL-12 p70 or recombinant purified human IL-12 p40 was then calculated from the kinetic rate constants by the following formula: KD=koff/kₒₙ. Binding is recorded as a function of time and kinetic rate constants are calculated.

Binder	Kd [nM]	koff [s⁻¹]	kon [M⁻¹ s⁻¹]
B10	0.024	7.6e-06	320000
B11	0.4	0.0003	740000

Target: T1, recombinant purified human IL-12 p70
Assay: cell-based or functional assay
Remark: another data set of the same source

Binder	Av. IC50 (nM) huIL-12, PHA blast assay [nM]
B10	0.15
B11	0.088

Source: patent US20140178332A1 (published 2014)
